This is an account of results in US20040053278A1.

In assay [1] the target is constitutively active (TD) TβR-I (UniProt P36897). In words: cell-based or functional assay.
The target of assay [2] is constitutively active BMPR-IB. Description: cell-based or functional assay.

Sequence of constitutively active (TD) TβR-I (P36897 34-503 T204D limits assumed): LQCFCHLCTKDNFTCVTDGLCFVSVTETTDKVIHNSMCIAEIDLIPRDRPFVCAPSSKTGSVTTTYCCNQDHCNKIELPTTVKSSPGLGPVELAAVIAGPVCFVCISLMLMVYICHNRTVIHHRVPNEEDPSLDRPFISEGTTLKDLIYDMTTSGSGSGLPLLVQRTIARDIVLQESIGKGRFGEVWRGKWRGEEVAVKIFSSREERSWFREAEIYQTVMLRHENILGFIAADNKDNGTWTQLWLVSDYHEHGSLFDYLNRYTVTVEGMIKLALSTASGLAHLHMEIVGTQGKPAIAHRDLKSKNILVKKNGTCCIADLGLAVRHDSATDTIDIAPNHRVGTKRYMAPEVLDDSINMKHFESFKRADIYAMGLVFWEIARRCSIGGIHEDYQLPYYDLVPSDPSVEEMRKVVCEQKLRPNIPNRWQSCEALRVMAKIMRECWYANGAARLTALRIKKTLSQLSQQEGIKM

Substance Myc-Smad6 (from UniProt O35182 1-495) registered a Phosphorylation of Smad2 induced by constitutively active TβR-I ([32P]orthophosphate labeling, immunoprecipitation) in assay [1] of 39 % reduction. In assay [2], this substance yielded a Smad1 phosphorylation induced by constitutively active BMPR-IB of 60 % reduction.
